Source: patent US20260116991A1 (HAINAN SIMCERE ZAIMING PHARMACEUTICAL, published 2026)

Assays:
[1] = molecular target: T1, murine GPC3-his protein (Sino Biological, Cat. No. 50989-M08B) (murine, UniProt Q8CFZ4 25-558); assay: ELISA, coated murine GPC3-His;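 note: antigen coated on plates at 1 µg/mL, test antibody bound for 2 h at 37 °C, detected with HRP-conjugated secondary antibody and TMB substrate after acid stop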
T1 construct: Bought protein; also called murine GPC3 protein

monkey GPC3-His protein = molecular target: T2, monkey GPC3-His protein (monkey); assay: ELISA, monkey GPC3-His coated;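 note: Plate-coated antigen at 1 µg/mL, antibody binding 2 h at 37 °C, detected with HRP-labeled secondary antibody and TMB, absorbance at 450 nm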
T2 construct: Bought recombinant protein; also called monkey GPC3 protein

[2] = molecular target: biotinylated labeled human GPC3 protein (produced in-house) (human, UniProt P51654 25-559, limits assumed, biotinylated (Dojindo, Cat. No. LK03); sites not stated); assay: ELISA, biotinylated human GPC3 protein

T1 sequence (Q8CFZ4 25-558 limits assumed): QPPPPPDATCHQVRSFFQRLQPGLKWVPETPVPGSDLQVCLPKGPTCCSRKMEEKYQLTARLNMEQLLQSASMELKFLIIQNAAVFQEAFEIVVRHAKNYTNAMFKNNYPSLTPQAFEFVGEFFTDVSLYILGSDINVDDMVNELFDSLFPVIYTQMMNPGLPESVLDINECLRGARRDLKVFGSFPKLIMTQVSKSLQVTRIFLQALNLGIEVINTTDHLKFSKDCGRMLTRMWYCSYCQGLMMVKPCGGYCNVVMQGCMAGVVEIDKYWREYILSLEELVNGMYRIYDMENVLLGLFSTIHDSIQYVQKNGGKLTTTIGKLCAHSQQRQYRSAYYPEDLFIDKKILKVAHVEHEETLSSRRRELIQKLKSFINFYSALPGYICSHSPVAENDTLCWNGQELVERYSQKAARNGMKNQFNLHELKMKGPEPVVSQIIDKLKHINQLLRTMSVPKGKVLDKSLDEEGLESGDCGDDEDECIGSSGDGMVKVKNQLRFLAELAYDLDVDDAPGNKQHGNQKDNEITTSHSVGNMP

Row | Binder | OD450 at 0.0001 nM antibody [1] [OD450 nm] | OD450 at 0.001 nM antibody [1] [OD450 nm] | OD450 at 0.01 nM antibody [1] [OD450 nm] | OD450 at 0.1 nM antibody [1] [OD450 nm] | OD450 at 1 nM antibody [1] [OD450 nm] | OD450 at 10 nM antibody [1] [OD450 nm] | OD450 at 100 nM antibody [1] [OD450 nm] | OD450 at 0.0008 nM [2] [OD450] | OD450 at 0.004 nM [2] [OD450] | OD450 at 0.02 nM [2] [OD450] | OD450 at 0.11 nM [2] [OD450] | OD450 at 0.53 nM [2] [OD450] | OD450 at 2.67 nM [2] [OD450] | OD450 at 13.33 nM [2] [OD450] | OD450 at 66.66 nM [2] [OD450] | further results
1 | F1.42.8 human-murine chimeric antibody (antibody, human IgG1, kappa, V domains shown) VH: HVQLQQPGAELVKPGASVKLSCKASGYTFTSYWMHWVRQRPGQGLEWIEMIHPNSGSTNYNEKFKSKATLTVDKSSSTAYMQLSSLTSEDSAVYYCARGNYNSSLYAMDYWGQGTSVTVSS VL: DIQMTQTTSSLSASLGDRVTISCSASQGISNYLNWYQQKPDGTVKLLIYYASNLHSGVPSRFSGSGSGTAYSLTISNLEPEDIATYYCQQYSILPYTFGGGTKLEIKR | 0.05 | 0.09 | 0.37 | 1.7 | 2.51 | 2.6 | 2.75 | – | – | – | – | – | – | – | – | –
2 | F1.21.8 human-murine chimeric antibody (antibody, human IgG1, kappa, V domains shown) VH: EVQLQQSGPELVKPGASVKISCKTSGFLFTGHYMHWVKSSHGNILDWIGYIYPYNAISFYNQKFKGKATLTVDKSSNTAYMELRSLTSEDSAVYYCARGDYGNYVTAYWGQGTLVTVSA VL: DVLMTQTPLSLPVSLGDQASISCRSSQSIVHSSGNTYLEWYLQKPGQSPKLLIYKVSNRFSGVPDRFSGSGSGTDFTLKISRVEAEDLGVYYCFQGSHLPWTFGGGTKLDIKR | 0.05 | 0.07 | 0.17 | 0.76 | 1.12 | 1.41 | 1.84 | – | – | – | – | – | – | – | – | –
3 | F2.152.3 (antibody, human IgG1, kappa, V domains shown, Human-murine chimeric antibody) VH: EVQLQQSGPELVKPGASVKMSCKASGYTFTDYYMTWVKQSHGKSLEWIGRVNPRNGDTTYNQKFEGRATLTLDKSLSTAFMQLNSLTSEDSAVYYCINSKGHFDYWGQGTTLTVSS VL: DVLMTQTPLSLPVSLGDQASISCRSSQSIVHSNGNTYLEWFLQKPGQSPKSLIYKVSNRFSGVPDRFSGSGSGTDFTLKISRVEAEDLGVYYCFQGSHVPPTFGAGTKLELKR | – | – | – | – | – | – | – | – | – | – | – | – | – | – | – | OD450 at 0.0001 nM (monkey GPC3-His protein): 0.24 OD450; OD450 at 0.001 nM (monkey GPC3-His protein): 0.31 OD450; OD450 at 0.01 nM (monkey GPC3-His protein): 0.69 OD450; OD450 at 0.1 nM (monkey GPC3-His protein): 1.92 OD450; OD450 at 1 nM (monkey GPC3-His protein): 2.52 OD450; OD450 at 10 nM (monkey GPC3-His protein): 2.31 OD450; OD450 at 100 nM (monkey GPC3-His protein): 2.41 OD450
4 | F1.2.14 human-murine chimeric antibody (antibody, human IgG1, kappa, V domains shown) VH: RVQLQQSGAELVKPGASVRMSCKASGYTFTAYSIEWMKQNLGKSLEWIGNFRPYNDDTKYNENFKGRATLTVEKSSATVYLELSRLTSDDSAVYYCARSGPTDYFDYWGQGTTLIVSS VL: DIQMTQSPASLSASVGETVTITCRASDNIYSYLAWYQQKQGQSPQLLVYNAKTLAEGVPSRFSGSGSVTQFSLKIISLQPEDFGTYYCQHHFGTPRTFGGGTKLEIKR | 0.05 | 0.05 | 0.06 | 0.14 | 0.46 | 1.2 | 1.24 | – | – | – | – | – | – | – | – | –
5 | F1.78.24 human-murine chimeric antibody (antibody, human IgG1, kappa, V domains shown) VH: QVQLQQSGAELVKPGASVKMSCKASGYTFTTYPIEWMKQNHGKSLEWIGNFHPYNDDTNYNVKFKGKATLTVEKSSSTVYLELSRLTSDDSALYYCARRREYYGSFDVWGTGTTVTVSS VL: not shown | 0.05 | 0.06 | 0.1 | 0.24 | 0.17 | 0.34 | 0.25 | – | – | – | – | – | – | – | – | –
6 | F1.83.6 human-murine chimeric antibody (antibody, human IgG1, kappa, V domains shown) VH: QVQLQQSGPELVKPGASVKISCKASGYAFSSSWMNWVKQRPGKGLEWIGRIYPGDGDTNYNGRFKGKATLTVDKSSSTAYMQLSSLTSEDSAVYFCARGGVFTMALDHWGQGTTLTVSS VL: DIQMTQSPSSLSASLGGKVTITCKASQDINKYIAWYQHKPGKGPRLLIHYTSTLQPGIPSRFSGSGSGRDYSFSISNLEPEDIATYYCLQYDNLFTFGGGTKLEIKR | 0.05 | 0.05 | 0.06 | 0.12 | 0.14 | 0.24 | 0.16 | – | – | – | – | – | – | – | – | –
7 | F1.41.17 human-murine chimeric antibody (antibody, human IgG1, kappa, V domains shown) VH: EVQLVESGGDSVKPGGSLKLSCAASGFTFSSYGMSWVRQTPDKRLEWVATINSGGSYTYYQDSVKGRFTISRDNAKNTLYLQMSSLKSEDTAIYYCVRHHYGSSYDYFDYWGQGTTLTVSS VL: DIVMTQAAPSVPVMPGESVSISCRSSKSLLHSNGNTHLYWFLQRPGQSPQLLIYRMSNLASGVPDRFSGSGSGTAFTLRISRVEAEDVGVYYCMQHLEYPLTFGAGTKLELKR | 0.06 | 0.05 | 0.05 | 0.06 | 0.07 | 0.08 | 0.11 | – | – | – | – | – | – | – | – | –
8 | F1.92.17 human-murine chimeric antibody (antibody, human IgG1, kappa, V domains shown) VH: EVQLQQSGPELVKPGASVKMSCKASGYTFTDYNMHWVRQSHGKSLEWIGYINPNNGDTIYNQNFKGKATLTVNKSSSTAYMELRSLTSEDSAVYYCSRTITYYYSMDYWGPGTSVTVSS VL: QIVLTQSPALMSASPGEKVTMTCSASSSVSYMYWYQQKPRSSPKPWIYLTSNLASGVPARFSGSGSGTSYSLTISSMEAEDAATYYCQQWSSNPLTFGAGTKLELKR | 0.05 | 0.05 | 0.05 | 0.06 | 0.11 | 0.22 | 0.13 | – | – | – | – | – | – | – | – | –

Further lines, with some results ahead:

Row | OD450 at 0.0001 nM antibody [1] [OD450 nm] | OD450 at 0.001 nM antibody [1] [OD450 nm] | OD450 at 0.01 nM antibody [1] [OD450 nm] | OD450 at 0.1 nM antibody [1] [OD450 nm] | OD450 at 1 nM antibody [1] [OD450 nm] | OD450 at 10 nM antibody [1] [OD450 nm] | OD450 at 100 nM antibody [1] [OD450 nm] | OD450 at 0.0008 nM [2] [OD450] | OD450 at 0.004 nM [2] [OD450] | OD450 at 0.02 nM [2] [OD450] | OD450 at 0.11 nM [2] [OD450] | OD450 at 0.53 nM [2] [OD450] | OD450 at 2.67 nM [2] [OD450] | OD450 at 13.33 nM [2] [OD450] | OD450 at 66.66 nM [2] [OD450] | Binder | further results
9 | – | – | – | – | – | – | – | 0.076 | 0.078 | 0.101 | 0.268 | 0.904 | 1.49 | 1.92 | 2.1 | hAb006LH1L1a (antibody, human IgG1, V domains shown, Humanized F3.38.7; VH H1 + VL L1a; expressed as human IgG1) VH: EVQLVQSGAEVKKPGSSVKVSCKASGYTFSDYEIHWVRQAPGQGLEWMGAIDPKTGNTAYNQKFMGRVTITADKSTSTAYMELSSLRSEDTAVYYCTRYFSFAYWGQGTLVTVSS VL: DIVMTQTPLSLPVTPGEPASISCRSSQTFVHSDGNTYLQWYLQKPGQSPQLLIYKVSNRFSGVPDRFSGSGSGTDFTLKISRVEAEDVGVYYCFQGSHVPYTFGQGTKLEIK | –
10 | – | – | – | – | – | – | – | 0.083 | 0.088 | 0.14 | 0.353 | 1.04 | 1.78 | 2.04 | 2.03 | hAb007LH3L1a (antibody, human IgG1, V domains shown, Humanized F3.81.19; VH H3 + VL L1a; expressed as human IgG1) VH: EVQLVQSGAEVKKPGSSVKVSCKASGYTFTDYEMHWVRQAPGQGLEWMGTIDPETGNTAYNQKFKGRVTLTADKSTSTAYMELSSLRSEDTAVYYCTRPYSLTYWGQGTLVTVSS VL: DIVMTQTPLSLPVTPGEPASISCRSSQSFVHSDGDTYLQWYLQKPGQSPQLLIYKVSNRFSGVPDRFSGSGSGTDFTLKISRVEAEDVGVYYCFQGSHVPYTFGQGTKLEIK | –
11 | – | – | – | – | – | – | – | 0.092 | 0.099 | 0.173 | 0.491 | 1.29 | 1.95 | 2.12 | 2.09 | hAb007LH2L1a (antibody, human IgG1, V domains shown, Humanized F3.81.19; VH H2 + VL L1a; expressed as human IgG1) VH: EVQLVQSGAEVKKPGSSVKVSCKASGYTFTDYEMHWVRQAPGQGLEWMGTIDPETGNTAYNQKFKGRVTITADKSTSTAYMELSSLRSEDTAVYYCTRPYSLTYWGQGTLVTVSS VL: DIVMTQTPLSLPVTPGEPASISCRSSQSFVHSDGDTYLQWYLQKPGQSPQLLIYKVSNRFSGVPDRFSGSGSGTDFTLKISRVEAEDVGVYYCFQGSHVPYTFGQGTKLEIK | –
12 | – | – | – | – | – | – | – | 0.073 | 0.072 | 0.076 | 0.139 | 0.584 | 1.37 | 1.74 | 1.92 | hAb006LH2L1a (antibody, human IgG1, V domains shown, Humanized F3.38.7; VH H2 + VL L1a; expressed as human IgG1) VH: EVQLVQSGAEVKKPGSSVKVSCKASGYTFTDYEIHWVRQAPGQGLEWMGAIDPKTGNTAYNQKFMGRVTITADKSTSTAYMELSSLRSEDTAVYYCTRYFSFAYWGQGTLVTVSS VL: DIVMTQTPLSLPVTPGEPASISCRSSQTFVHSDGNTYLQWYLQKPGQSPQLLIYKVSNRFSGVPDRFSGSGSGTDFTLKISRVEAEDVGVYYCFQGSHVPYTFGQGTKLEIK | –
13 | – | – | – | – | – | – | – | 0.087 | 0.112 | 0.218 | 0.634 | 1.57 | 2.1 | 2.2 | 2.22 | hAb007LH1L1a (antibody, human IgG1, V domains shown, Humanized F3.81.19; VH H1 + VL L1a; expressed as human IgG1) VH: EVQLVQSGAEVKKPGSSVKVSCKASGYTFSDYEMHWVRQAPGQGLEWMGTIDPETGNTAYNQKFKGRVTITADKSTSTAYMELSSLRSEDTAVYYCTRPYSLTYWGQGTLVTVSS VL: DIVMTQTPLSLPVTPGEPASISCRSSQSFVHSDGDTYLQWYLQKPGQSPQLLIYKVSNRFSGVPDRFSGSGSGTDFTLKISRVEAEDVGVYYCFQGSHVPYTFGQGTKLEIK | –
14 | – | – | – | – | – | – | – | 0.076 | 0.072 | 0.087 | 0.207 | 0.909 | 1.48 | 1.83 | 2.07 | hAb006LH3L1a (antibody, human IgG1, V domains shown, Humanized F3.38.7; VH H3 + VL L1a; expressed as human IgG1) VH: EVQLVQSGAEVKKPGSSVKVSCKASGYTFTDYEIHWVRQAPGQGLEWMGAIDPKTGNTAYNQKFMGRVTLTADKSTSTAYMELSSLRSEDTAVYYCTRYFSFAYWGQGTLVTVSS VL: DIVMTQTPLSLPVTPGEPASISCRSSQTFVHSDGNTYLQWYLQKPGQSPQLLIYKVSNRFSGVPDRFSGSGSGTDFTLKISRVEAEDVGVYYCFQGSHVPYTFGQGTKLEIK | –
15 | 0.05 | 0.05 | 0.05 | 0.12 | 0.32 | 0.53 | 0.3 | – | – | – | – | – | – | – | – | F1.110.24 human-murine chimeric antibody (antibody, human IgG1, kappa, V domains shown) VH: EVKLVESGGGLVQPGGSLKLSCAASGFTFSDFYMYWVRQTPEKRLEWVAFISNGGGSTYYPDTVKGRFTISRDNVKNTLYLQMSRLKSEDTAMYYCARPDTSWFAYWGQGSLVTVSA VL: DIQMTQTTSSLSASLGDRVTISCRASQDIDNYLNWYQQKPDGTVKVLISYTSRLHSGVPSRFSGSGSGTDYSLTISNLEQEDIATYFCQQGNTLPWTFGGGTKLEIKR | –
